According to doi:10.1101/2021.01.30.428974:

Columns and labels:
[1] = target: wild-type Murine polyomavirus VP1 (Murine polyomavirus) (UniProt P03090); experiment: co-sedimentation
[2] = target: Murine polyomavirus VP1 with the putative nuclear localisation signal deleted (Murine polyomavirus) (UniProt P03090); experiment: co-sedimentation

VP2C-GFP
stoichiometry N (GFP per wtVP1 VLP) [1]: 59 | stoichiometry N (GFP per ΔVP1 VLP) [2]: 72
